Assay results: paper PMC5611513 (2017)

B1: TplEi (natural protein)
chain: CTSFSSSRSSSMDKTGWITHCFGRFLIDLPPDAVINAGYYLWGDRIEYLDDKPTELAARVDRLEQEWRTQRHKSKGNMFLRKIDFGNESVGLLSWSSEVASKTYLLDTYVTSKPTWHVYRWKGKVSVDREQHAVEISRALARNLRSRAPKEIPSEPGFCIDHAYIAGDSFQVERFGVGVTFPEHPGARFEFRSSTGAELNSLLERVDGFVQNMLSTFAGMETLRKGKHPVGSLPGEEYLVAGSDKGQRGYTFMWEVQGKEESLTEPNLTAGLAVLERSNENGKPPPPAFKSDKEALELWDTIVDSIRVRPTSSSPRGGNAGPSPAPKPATPGGQTLGDHYVYEEFLSSLKPKDSWLDDL

Columns and labels:
Assay in all cases: ITC
TplEi = target: B1
G98A = target: G98A
I88A = target: I88A
L91A = target: L91A

Row | Binder | Ka (TplEi) [M⁻¹] | Kd (G98A) [µM] | Kd (I88A) [µM] | Kd (L91A) [µM]
1 | Ac-DDLFASIGALWTWAWRGPKARQELLKAEQVEVDD-NH2 [A peptides (“L” peptide, TplE 82-108 plus EQVEVDD)] | 7.98e+06 |  |  | 
2 | B1 |  | 1.31 | 4.8 | 3.7
3 | Ac-DDLFASIGALWTWAWRGPKARQELLKAEQ-NH2 [B peptides (“L” peptide, TplE 82-108 plus EQ)] | 2.09e+06 |  |  | 
